Results published in patent US20250255972A1, “METHOD OF TREATING UVEITIS WITH MULTIVALENT PROTEIN-HYALURONIC ACID POLYMER CONJUGATE” (Valitor, Inc., priority 2022, published 2025).

Target: T1, Human IL-1β, Fc tagged (Acro Biosystems ILA-H525c) (human, UniProt P01584 117-269)
T1 construct: Bought BLI ligand, loaded on anti-human Fc probes; also called BLI ligand; not shown: Fc tag
Test: BLI (Gator), Fc-tagged IL-1β on anti-human Fc probes, conjugate as analyte, 1:1 global fit

B1: (SEQ ID NO:106)+HyA (850 kDa) conjugate #9, valency 15 (other)
scFv: EIVMTQSPSTLSASVGDRVIITCQASQSIDNWLSWYQQKPGKAPKLLIYRASTLASGVPSRFSGSGSGAEFTLTISSLQPDDFATYYCQNTGGGVSIAFGQGTKLTVLGGGGGSGGGGSGGGGSGGGGSEVQLVESGGGLVQPGGSLRLSCTASGFSLSSAAMAWVRQAPGKGLEWVGIIYDSASTYYASWAKGRFTISRDTSKNTVYLQMNSLRAEDTAVYYCARERAIFSGDFVLWGQGTLVTVSSSPSTPPTPSPSTPPGGC
modifications: C-terminal cysteine thiol of the rigid peptide linker joined through the EMCH organic linker to hyaluronic acid
  Kd: 0.353 nM
